Measurements published in article PMC12363810.

Target: proliferating cell nuclear antigen (PCNA), Saccharomyces cerevisiae (Saccharomyces cerevisiae) (UniProt P15873)
Assay: single-molecule correlative force and fluorescence microscopy

Chain of UniProt P15873 (P15873 whole entry): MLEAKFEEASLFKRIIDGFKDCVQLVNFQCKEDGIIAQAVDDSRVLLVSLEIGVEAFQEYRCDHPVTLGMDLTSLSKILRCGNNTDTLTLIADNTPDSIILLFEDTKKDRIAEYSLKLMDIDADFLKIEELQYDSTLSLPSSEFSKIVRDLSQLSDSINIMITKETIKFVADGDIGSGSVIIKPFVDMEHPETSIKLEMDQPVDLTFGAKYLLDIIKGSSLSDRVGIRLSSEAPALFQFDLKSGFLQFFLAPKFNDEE

Substance “replication factor C (RFC), Saccharomyces cerevisiae, full-length (from UniProt P38630 1-861) (complex)” has a tethers with RFC along the path of fill-in together with PCNA (of 14 tethers) of 9.
